Data on 54 variants can be found in the RNAGym collection of RNA variant scans (doi:10.7554/elife.80360).

First the molecules themselves.
B1: Twister Ribozyme (parent)
chain: AACACUGCCAAUGCCGGUCCCAAGCCCGGAUAAAAGUGGAGGGGGCGG

In this data set the parent is B1. As to the kind of experiment: self-cleavage, relative activity (ratio to wild type); higher = more cleavage; co-transcriptional.
Turning to AACACUGCCAAUGCCGGUCCCAAGCCCCGAUAAAAGUGGAGGGGGCUG [G28C G47U], the self-cleavage turned out to be 0.378.

For AACACUGCUAAUGCCGGUCCCAAGCCCGGAGAAAAGUGGAGGGGGCGG [C9U U31G], the self-cleavage was 0.69.

Turning to AACACUGCCAAUGCCGGUCCUAUGCCCGGAUAAAAGUGGAGGGGGCGG [C21U A23U], the self-cleavage stood at 0.0638.

For the variant AACACUGCCAUUGCCGGUCCCAAGCCCGGAUAAAAGUGGAGGGGCCGG [A11U G45C], the self-cleavage turned out to be 0.733.

Regarding AACUCUGCCAAUGCCGGUCCCAAGCCCGGAUAAAAGUGGAGGAGGCGG [A4U G43A], the self-cleavage was 0.0748.

Consider AACACUGCCAAAGCCGGUCCCAAGCCCGGAUAAAAGUGGAAGGGGCGG [U12A G41A], for which the self-cleavage came out at 0.696.

For AAGACUGCCAAUGCCGGUCCCAUGCCCGGAUAAAAGUGGAGGGGGCGG [C3G A23U], the self-cleavage came to 0.107.

Consider AACACUGCCAAUGCCGGUCCCAAGCCGGGAAAAAAGUGGAGGGGGCGG [C27G U31A], for which the self-cleavage came to 0.099.

As for AACACUGCCAAUGCCUGUCCCAAGCCCGGAUAAAAGUGGGGGGGGCGG [G16U A40G], the self-cleavage is 0.206.

As for AACACUGCCCAUGCCGGUCCCAAGCCCGGAUAAAAGUGGAGGGUGCGG [A10C G44U], the self-cleavage is 0.859.

Regarding UACACUGCCAAUGCCGGUCCCAAGCCCGGAUAAAAGUAGAGGGGGCGG [A1U G38A], the self-cleavage was determined as 0.0686.

In the case of AACACUGCCAAUGCCCGUCCCAAGCCUGGAUAAAAGUGGAGGGGGCGG [G16C C27U], the self-cleavage was 0.854.

With AACACUGCCCAUGUCGGUCCCAAGCCCGGAUAAAAGUGGAGGGGGCGG [A10C C14U], the self-cleavage was 1.01.

For AAGACUGCCAAUGCCGGUCCCAAGCCCGGAUAAAAGUGGAGGGGGCUG [C3G G47U], the self-cleavage turned out to be 0.361.

Regarding AACACUGCCAAAGCCGGUCCCAAGCCCGGAUAAAAGUGGAGGGAGCGG [U12A G44A], the self-cleavage is 1.04.

As for AACACUGCCAAGGUCGGUCCCAAGCCCGGAUAAAAGUGGAGGGGGCGG [U12G C14U], the self-cleavage came out at 0.756.

AACAAUGCCAAUGCCGGUCCCAAGCCCGGAUAAAAGCGGAGGGGGCGG [C5A U37C]: the self-cleavage amounted to 0.124.

AACACUGCCAAUGCCGGUCCCAAGCCCUGAUAAAAGUGGAGGGGCCGG [G28U G45C]: the self-cleavage turned out to be 0.175.

In the case of AACACUGCCAAUGCGGGUCCCAAGCCCGGAUAAAAGUGGAGGGGGGGG [C15G C46G], the self-cleavage turned out to be 0.111.

As to AACACUGCCAAUGCAGGUCCCAAGCCCGAAUAAAAGUGGAGGGGGCGG [C15A G29A], the self-cleavage is 0.793.

For AACACUGCCAUUGCCGGUCCCAAGCCCGGAUAAAAGUGGAGGUGGCGG [A11U G43U], the self-cleavage amounted to 0.606.

As for AACACUGCCAAUGCCGGUCGCAAGCCCGGAUAAAAGUGGAGGGGACGG [C20G G45A], the self-cleavage is 0.102.

As for AACACUGCCAAUGCCGGUCCCAAGCCCGGAUAAAAAUGGAGGGGACGG [G36A G45A], the self-cleavage was determined as 0.714.

Turning to AACACUGCCAAUGCCGGUCCUAAGCCCGGAUAAAAGUGCAGGGGGCGG [C21U G39C], the self-cleavage was found to be 0.114.

As to ACCACUGCCAAUGCCGGUCCCAACCCCGGAUAAAAGUGGAGGGGGCGG [A2C G24C], the self-cleavage stood at 0.0423.

For the variant AACACUGCCAAUGCCGCUCCCAAGCCCGGAUAAGAGUGGAGGGGGCGG [G17C A34G], the self-cleavage is 0.112.

As for AACACUGCCAAUGCCGGUCCAAAGCCCGGAUAUAAGUGGAGGGGGCGG [C21A A33U], the self-cleavage came out at 0.102.

For the variant AACACUGCCAAUGCCGGUCCCAAGCCUGGAUACAAGUGGAGGGGGCGG [C27U A33C], the self-cleavage is 0.764.

Take AACACUGCCGAUGCCGGUCCCGAGCCCGGAUAAAAGUGGAGGGGGCGG [A10G A22G]: the self-cleavage worked out at 0.268.

Turning to AACACUGGCAAUGCCGGUCCCAAGCCCGGAUAAAAGUGAAGGGGGCGG [C8G G39A], the self-cleavage is 0.0973.

For the variant AACACUGCCAAUGCUUGUCCCAAGCCCGGAUAAAAGUGGAGGGGGCGG [C15U G16U], the self-cleavage was determined as 0.31.

For AACACUGCCAAUGCCGGUCCCAAGCCCGGAUAAAAAUGGAGGAGGCGG [G36A G43A], the self-cleavage is 0.14.

AACACUUCCAAUGCCGGUCCCAAGCCCGGAUAUAAGUGGAGGGGGCGG [G7U A33U]: the self-cleavage stood at 0.109.

For AACACUGCCAAUGCCGGUCCCAAGCCCAGAUAAAAGUGGCGGGGGCGG [G28A A40C], the self-cleavage is 0.163.

Turning to AACACUCCCAAUGCCGGUCCCAAGCCCGGAUAAAAGUGGAGGCGGCGG [G7C G43C], the self-cleavage was 0.0825.

On to AACACUGCCAAUGCCGGUCCCAAGCCCGGAUAAAAGUGGAGAGAGCGG [G42A G44A], for which the self-cleavage came out at 0.377.

On to AACACUGCCAAUGCCGGUCCCAAUCCCGGAUAAAAGUGGAGGGGACGG [G24U G45A], for which the self-cleavage is 0.0796.

Take AACACUGCCAAUGCCGUUCCCAAGCCCGGAUAACAGUGGAGGGGGCGG [G17U A34C]: the self-cleavage was 0.0829.

In the case of UACACUGCCAAUGCCGGUCCCAAGCCCAGAUAAAAGUGGAGGGGGCGG [A1U G28A], the self-cleavage worked out at 0.0517.

Consider UACACUGCCAAUGCCGGUCCCAGGCCCGGAUAAAAGUGGAGGGGGCGG [A1U A23G], for which the self-cleavage came out at 0.0754.

AACACUGCCGAUCCCGGUCCCAAGCCCGGAUAAAAGUGGAGGGGGCGG [A10G G13C]: the self-cleavage worked out at 0.835.

Consider AACACAGCCAAUGCCGGUCCCAAGCCCGAAUAAAAGUGGAGGGGGCGG [U6A G29A], for which the self-cleavage was found to be 0.787.

For AACACUGCCAAUGCCGGUCCCAAGCCCGGAUUAAAGUCGAGGGGGCGG [A32U G38C], the self-cleavage came out at 1.12.

As for AACACUGCGAAUGCCGGUCCCAAGCCCGGAUAAAAGUGGAGGGGGCAG [C9G G47A], the self-cleavage was 0.38.

Take CACACUGUCAAUGCCGGUCCCAAGCCCGGAUAAAAGUGGAGGGGGCGG [A1C C8U]: the self-cleavage worked out at 0.193.

Turning to AACACUGCCAAUGCCGGUCCCAAACCCGGAUAAAAGUGGAGGGGGCGA [G24A G48A], the self-cleavage worked out at 0.121.

Take AACACUGCCAAUGCAGGUCCCAAGACCGGAUAAAAGUGGAGGGGGCGG [C15A C25A]: the self-cleavage is 0.0919.

Regarding AACACUGCCACUGCCUGUCCCAAGCCCGGAUAAAAGUGGAGGGGGCGG [A11C G16U], the self-cleavage stood at 0.0992.

As for AACACUGCCAAUGCCUGUCCCAAGCCCGGAUAAAAGUGGAGGUGGCGG [G16U G43U], the self-cleavage came out at 0.313.

Turning to AACACUGCCAGUCCCGGUCCCAAGCCCGGAUAAAAGUGGAGGGGGCGG [A11G G13C], the self-cleavage came to 0.345.

For the variant AACACUGCCAAUGCCGGUCCCAGGCCCGGAUAAAAGUUGAGGGGGCGG [A23G G38U], the self-cleavage turned out to be 0.236.

On to AACACUGCUAAUGCCCGUCCCAAGCCCGGAUAAAAGUGGAGGGGGCGG [C9U G16C], for which the self-cleavage came out at 0.13.

In the case of AAUACUGCCAAUGCCGGUCCCAAGGCCGGAUAAAAGUGGAGGGGGCGG [C3U C25G], the self-cleavage amounted to 0.0982.

Consider AAAACUGCCAAUGCCGGUCCCAAGCCCGGACAAAAGUGGAGGGGGCGG [C3A U31C], for which the self-cleavage came to 0.224.
